Measurements published in paper PMC6454061.
Numbering of substitutions follows the chain as printed. Names may count otherwise. Blank lines part the entries; values can stand above or below the molecule they belong to.

Columns and labels:
[1] = molecular target: ST6Gal-I cysteine mutant C24S (UniProt P15907); experiment: FRET in cells (homomer assembly); conditions: n = 3, 15,000 cells each; parent: est. 100; read off a plot
[2] = molecular target: β1,4-galactosyltransferase B4GalT-I (UniProt P15291); experiment: FRET in cells (heteromer assembly); conditions: n = 3, 15,000 cells each; parent: est. 100; read off a plot
[3] = molecular target: T1, ST6Gal-I cysteine mutant C406A, P15907; experiment: FRET in cells (homomer assembly); conditions: chain shown with the change; n = 3, 15,000 cells each; parent: est. 100; read off a plot
T1 chain: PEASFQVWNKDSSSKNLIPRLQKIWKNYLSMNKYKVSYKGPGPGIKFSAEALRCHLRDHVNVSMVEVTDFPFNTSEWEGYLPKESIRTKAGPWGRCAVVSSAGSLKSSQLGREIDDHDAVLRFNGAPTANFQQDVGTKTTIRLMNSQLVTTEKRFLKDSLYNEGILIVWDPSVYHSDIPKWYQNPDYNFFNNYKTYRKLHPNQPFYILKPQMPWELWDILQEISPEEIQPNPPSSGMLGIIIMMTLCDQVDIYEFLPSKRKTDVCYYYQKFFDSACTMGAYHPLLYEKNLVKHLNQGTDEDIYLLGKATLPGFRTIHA

[4] = molecular target: T2, β1,4-galactosyltransferase B4GalT-I, P15291; experiment: FRET in cells (heteromer assembly); conditions: chain shown with the change; n = 3, 15,000 cells each; parent: est. 100; read off a plot
T2 chain: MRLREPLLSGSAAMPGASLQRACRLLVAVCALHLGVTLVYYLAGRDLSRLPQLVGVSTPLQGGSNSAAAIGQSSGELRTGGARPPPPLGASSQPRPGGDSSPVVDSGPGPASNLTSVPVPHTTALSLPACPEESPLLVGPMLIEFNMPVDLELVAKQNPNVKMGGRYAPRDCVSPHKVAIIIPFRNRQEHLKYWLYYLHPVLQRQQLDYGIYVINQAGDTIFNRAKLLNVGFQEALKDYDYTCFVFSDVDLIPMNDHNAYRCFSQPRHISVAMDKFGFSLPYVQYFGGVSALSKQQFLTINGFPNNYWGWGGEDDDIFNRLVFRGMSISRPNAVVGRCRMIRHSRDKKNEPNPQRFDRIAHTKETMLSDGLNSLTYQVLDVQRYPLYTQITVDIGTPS

[5] = molecular target: T3, ST6Gal-I cysteine mutant C353A, P15907; experiment: FRET in cells (homomer assembly); conditions: chain shown with the change; n = 3, 15,000 cells each; parent: est. 100; read off a plot
T3 chain: T1 chain with C265A, A318C

percent of parent (% of WT control) [1]: 70 | percent of parent (% of WT control) [2]: 97
Molecule: α-2,6-sialyltransferase ST6Gal-I, wild type (from UniProt P15907) C24S

percent of parent (% of WT control) [3]: 60 | percent of parent (% of WT control) [4]: 84
B1: α-2,6-sialyltransferase ST6Gal-I, wild type, P15907 C406A (protein)
chain: T1 chain

percent of parent (% of WT control) [5]: 83
B2: α-2,6-sialyltransferase ST6Gal-I, wild type, P15907 C353A (protein)
chain: T1 chain with C265A, A318C
